PMC10574445, “Label-Free Homogeneous Electrochemical Aptasensor Based on Size Exclusion/Charge-Selective Permeability of Nanochannel Arrays and 2D Nanorecognitive Probe for Sensitive Detection of Alpha-Fetoprotein”

How the values were obtained:
Conditions in all cases: protein: commercial
alpha-fetoprotein (AFP) = target: T1, alpha-fetoprotein (AFP) (UniProt P02771 19-609); experiment: electrochemical aptasensor (DPV), aptamer release from graphene oxide; Ru(bpy)3 2+/Apt@GO probe; linear 1 pg/mL-1000 ng/mL, LOD 0.8 pg/mL (not a Kd); AFP incubated with Ru(bpy)3 2+/Apt@GO at 37 °C for 1 h, DPV on VMSF/ITO; buffer, salt and pH not given in the material
T1 sequence: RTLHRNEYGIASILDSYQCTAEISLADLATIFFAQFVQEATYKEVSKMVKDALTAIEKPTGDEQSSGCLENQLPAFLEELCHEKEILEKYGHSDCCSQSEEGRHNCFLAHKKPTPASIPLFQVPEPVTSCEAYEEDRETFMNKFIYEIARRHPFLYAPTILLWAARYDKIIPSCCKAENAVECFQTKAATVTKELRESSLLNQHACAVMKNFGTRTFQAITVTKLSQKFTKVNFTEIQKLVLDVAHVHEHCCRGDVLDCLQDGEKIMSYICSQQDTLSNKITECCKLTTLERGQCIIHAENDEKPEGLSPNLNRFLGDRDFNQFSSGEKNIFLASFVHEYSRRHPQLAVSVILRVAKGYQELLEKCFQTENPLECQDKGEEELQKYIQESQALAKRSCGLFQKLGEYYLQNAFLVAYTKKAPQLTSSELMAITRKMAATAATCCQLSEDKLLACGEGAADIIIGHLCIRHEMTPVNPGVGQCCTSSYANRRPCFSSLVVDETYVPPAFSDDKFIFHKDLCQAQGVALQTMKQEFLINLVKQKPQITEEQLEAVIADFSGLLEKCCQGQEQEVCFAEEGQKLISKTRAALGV

[1] = target: carcinoembryonic antigen (CEA) (UniProt P06731 35-685); experiment: electrochemical aptasensor (DPV), aptamer release from graphene oxide; Ru(bpy)3 2+/Apt@GO probe; no remarkable signal change; AFP incubated with Ru(bpy)3 2+/Apt@GO at 37 °C for 1 h, DPV on VMSF/ITO; buffer, salt and pH not given in the material
Sequence of carcinoembryonic antigen (CEA) (P06731 35-685): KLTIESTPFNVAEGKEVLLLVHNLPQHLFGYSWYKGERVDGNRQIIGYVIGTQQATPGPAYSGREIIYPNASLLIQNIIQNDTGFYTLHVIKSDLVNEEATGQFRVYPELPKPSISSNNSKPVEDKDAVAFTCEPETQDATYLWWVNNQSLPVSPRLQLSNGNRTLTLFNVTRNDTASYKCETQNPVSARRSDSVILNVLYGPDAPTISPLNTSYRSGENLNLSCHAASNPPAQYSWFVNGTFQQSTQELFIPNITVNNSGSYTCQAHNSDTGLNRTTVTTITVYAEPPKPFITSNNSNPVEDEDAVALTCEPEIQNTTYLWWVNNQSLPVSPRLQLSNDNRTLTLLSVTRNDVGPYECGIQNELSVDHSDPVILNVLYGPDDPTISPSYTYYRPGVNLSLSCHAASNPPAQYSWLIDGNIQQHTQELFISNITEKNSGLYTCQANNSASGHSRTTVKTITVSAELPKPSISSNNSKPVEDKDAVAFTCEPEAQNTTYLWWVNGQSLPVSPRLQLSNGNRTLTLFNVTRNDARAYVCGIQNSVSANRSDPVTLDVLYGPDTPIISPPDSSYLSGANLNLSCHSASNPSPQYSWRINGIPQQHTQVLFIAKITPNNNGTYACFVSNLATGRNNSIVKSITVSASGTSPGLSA

[2] = target: PSA (printed as preprostate antigen) (UniProt P07288 25-261); experiment: as above
Sequence of PSA (printed as preprostate antigen) (P07288 25-261): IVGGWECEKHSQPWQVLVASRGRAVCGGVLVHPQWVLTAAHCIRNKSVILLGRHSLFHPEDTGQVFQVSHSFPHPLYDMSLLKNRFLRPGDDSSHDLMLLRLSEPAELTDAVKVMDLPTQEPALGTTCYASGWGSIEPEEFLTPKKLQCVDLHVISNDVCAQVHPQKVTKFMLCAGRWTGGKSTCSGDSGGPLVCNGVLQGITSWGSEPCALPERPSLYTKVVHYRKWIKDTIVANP

[3] = target: neutrophil gelatinase-associated lipocalin (NGAL) (UniProt P80188 21-198); experiment: as above
Sequence of neutrophil gelatinase-associated lipocalin (NGAL) (P80188 21-198): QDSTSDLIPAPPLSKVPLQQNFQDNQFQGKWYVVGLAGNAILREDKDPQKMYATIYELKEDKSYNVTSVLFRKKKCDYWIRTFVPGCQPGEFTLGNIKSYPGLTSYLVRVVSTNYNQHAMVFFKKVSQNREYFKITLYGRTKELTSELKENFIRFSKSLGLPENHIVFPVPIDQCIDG

B1: AFP aptamer (Apt) (ssDNA)
DNA: ATCAGGTGCAGTTCTCGACTCGGTCTTGATGTGGG
- binding result (alpha-fetoprotein (AFP)): binds
- binding result [1]: no binding
- binding result [2]: no binding
- binding result [3]: no binding
